Legend:
[1] = target: synthetic Aβ40 peptide, P05067
[2] = target: synthetic Aβ42 peptide, P05067
[3] = target: Aβ40 high molecular weight fibrils, P05067
Sequence of Aβ40 high molecular weight fibrils, P05067 (P05067 whole entry, looked up): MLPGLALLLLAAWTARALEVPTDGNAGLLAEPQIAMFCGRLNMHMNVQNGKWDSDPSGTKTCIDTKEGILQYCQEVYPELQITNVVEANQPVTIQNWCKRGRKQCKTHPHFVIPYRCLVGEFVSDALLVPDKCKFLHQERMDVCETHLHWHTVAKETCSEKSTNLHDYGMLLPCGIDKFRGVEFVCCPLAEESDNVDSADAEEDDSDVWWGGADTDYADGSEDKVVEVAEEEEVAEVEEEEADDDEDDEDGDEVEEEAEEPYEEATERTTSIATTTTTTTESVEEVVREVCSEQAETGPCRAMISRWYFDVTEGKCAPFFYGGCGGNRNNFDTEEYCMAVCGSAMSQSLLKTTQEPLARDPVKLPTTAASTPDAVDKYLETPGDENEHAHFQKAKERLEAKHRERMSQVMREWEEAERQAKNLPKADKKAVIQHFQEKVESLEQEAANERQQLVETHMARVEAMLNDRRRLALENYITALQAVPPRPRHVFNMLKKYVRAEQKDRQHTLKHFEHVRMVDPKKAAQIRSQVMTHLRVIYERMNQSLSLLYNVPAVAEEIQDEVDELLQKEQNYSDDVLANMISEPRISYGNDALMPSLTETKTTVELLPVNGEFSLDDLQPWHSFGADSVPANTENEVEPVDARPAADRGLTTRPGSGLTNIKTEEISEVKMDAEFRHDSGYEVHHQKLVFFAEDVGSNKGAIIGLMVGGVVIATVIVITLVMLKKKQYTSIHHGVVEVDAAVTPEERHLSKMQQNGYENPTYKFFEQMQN

Sequence of synthetic Aβ40 peptide, P05067 (P05067 whole entry, looked up, tested part not stated): as the sequence (P05067 whole entry, looked up) above
Sequence of synthetic Aβ42 peptide, P05067 (P05067 whole entry, looked up, tested part not stated): as the sequence (P05067 whole entry, looked up) above
Sequence of Aβ42 fibrils, P05067 (P05067 whole entry, looked up): as above
Sequence of Aβ42 oligomers, P05067 (P05067 whole entry, looked up): as above

B1: protective protein/cathepsin A (PPCA) (protein)
chain: APDQDEIQRLPGLAKQPSFRQYSGYLKGSGSKHLHYWFVESQKDPENSPVVLWLNGGPGCSSLDGLLTEHGPFLVQPDGVTLEYNPYSWNLIANVLYLESPAGVGFSYSDDKFYATNDTEVAQSNFEALQDFFRLFPEYKNNKLFLTGESYAGIYIPTLAVLVMQDPSMNLQGLAVGNGLSSYEQNDNSLVYFAYYHGLLGNRLWSSLQTHCCSQNKCNFYDNKDLECVTNLQEVARIVGNSGLNIYNLYAPCAGGVPSHFRYEKDTVVVQDLGNIFTRLPLKRMWHQALLRSGDKVRMDPPCTNTTAASTYLNNPYVRKALNIPEQLPQWDMCNFLVNLQYRRLYRSMNSQYLKLLSSQKYQILLYNGDVDMACNFMGDEWFVDSLNQKMEVQRRPWLVKYGDSGEQIAGFVKEFSHIAFLTIKGAGHMVPTDKPLAAFTMFSRFLNKQPY
In the case of B1, the “western blot (A11) of day 9 Aβ42 oligomers after overnight treatment with 90 ng enzyme” value (Aβ42 oligomers, P05067) is reported as “resulted in degradation of the lowest oligomer band (line 4)”, the “ELISA with C-terminal capture antibody after 2 h incubation of Aβ40 with varying Cath A concentrations” value [1] is reported as “progressively reduced binding of Aβ40 peptide to C-terminal capture antibody with increasing concentration of Cath A” and the “THT aggregation of Aβ40 after pre-incubation with Cath A for up to two hours” value [1] is reported as “Aβ40 peptide did not aggregate after pre-incubation with Cath A”. For the same protein, the “THT aggregation of Aβ40 with simultaneous incubation with Cath A” value [1] was “aggregation of Aβ40 amyloid is not affected by Cath A, in applied experimental settings, even when high concentration of enzyme is used”, the “Aβ42 aggregation by THT assay and western blot” value [2] was “PPCA can efficiently prevent formation of Aβ42 amyloid species” and the “human Aβ42 specific ELISA signal after treatment with 90 ng cathepsin A (0-120 min, 37° C., pH 5.0)” value [2] was “a loss of fluorescent signal already within first 10 min of treatment”. The “western blot (E610) of day 9 Aβ42 fibrils after overnight treatment with 90 ng enzyme” value (Aβ42 fibrils, P05067) was “resulted in reduction/degradation of the fibril smear as well as degradation of oligomer species (line 4 compared to line 1)” and the “western blot of Aβ40 co-incubated with Cath A for up to 9 days during fibril formation” value [3] was “Cath A significantly prevents formation of high molecular weight fibrils”.
